Measured values reported in patent US20100048677A1 (NEW YORK BLOOD CENTER, published 2010).

What follows are substances tested against αIIb (INTEGRIN, ALPHA 2B; PLATELET GLYCOPROTEIN IIB OF IIB/IIIA COMPLEX, ANTIGEN CD41) (human) (UniProt P08514) (assay: αIIb complexes captured, mass spectrometry; No. Expts 1).

Sequence of HOMER HOMOLOG 3 (DROSOPHILA) (Q9NSC5 whole entry): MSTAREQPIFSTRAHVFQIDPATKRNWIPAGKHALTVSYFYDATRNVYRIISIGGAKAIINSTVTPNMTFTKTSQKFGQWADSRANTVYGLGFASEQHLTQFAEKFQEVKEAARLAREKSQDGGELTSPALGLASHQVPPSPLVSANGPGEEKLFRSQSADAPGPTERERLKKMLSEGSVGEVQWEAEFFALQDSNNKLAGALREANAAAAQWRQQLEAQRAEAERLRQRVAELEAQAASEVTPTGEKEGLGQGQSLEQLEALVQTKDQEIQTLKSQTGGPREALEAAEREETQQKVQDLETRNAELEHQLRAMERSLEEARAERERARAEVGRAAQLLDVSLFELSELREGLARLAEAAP
Sequence of UniProt Q8IYS1 (Q8IYS1 whole entry): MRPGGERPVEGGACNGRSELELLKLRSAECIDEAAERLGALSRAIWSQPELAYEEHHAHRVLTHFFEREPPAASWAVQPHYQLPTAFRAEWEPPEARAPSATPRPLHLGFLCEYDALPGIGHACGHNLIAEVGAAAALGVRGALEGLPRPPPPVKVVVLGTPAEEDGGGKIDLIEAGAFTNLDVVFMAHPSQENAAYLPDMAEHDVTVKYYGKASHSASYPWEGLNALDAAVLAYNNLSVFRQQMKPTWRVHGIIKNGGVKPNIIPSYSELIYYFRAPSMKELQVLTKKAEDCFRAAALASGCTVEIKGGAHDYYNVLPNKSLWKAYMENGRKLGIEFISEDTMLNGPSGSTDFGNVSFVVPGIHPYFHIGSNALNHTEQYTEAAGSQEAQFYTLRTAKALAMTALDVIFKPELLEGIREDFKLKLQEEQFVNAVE

| #Peptides | Substance |
| --- | --- |
| 4 peptides | 3-HYDROXY-3-METHYLGLUTARYL-COENZYME A SYNTHASE 1 (SOLUBLE) (from UniProt Q01581 1-520) |
| 8 peptides | ACTININ, ALPHA 3 (from UniProt Q08043 1-901) |
| 9 peptides | ADP-… GLUCOKINASE (from UniProt Q9BRR6 23-497) |
| 2 peptides | ALPHA-2-MACROGLOBULIN (from UniProt P01023 24-1474) |
| 13 peptides | AMINOACYLASE 1-LIKE 2 (from UniProt Q8IYS1 1-436) |
| 8 peptides | AMINOLEVULINATE, DELTA-, … (from UniProt P13716 1-330) |
| 8 peptides | ATAXIN 2-LIKE (from UniProt Q8WWM7 1-1075) |
| 5 peptides | ATP CITRATE LYASE (from UniProt P53396 1-1101) |
| 2 peptides | ATP SYNTHASE, H+ TRANSPORTING, MITOCHONDRIAL F1 COMPLEX, ALPHA SUBUNIT 1, CARDIAC MUSCLE (from UniProt P25705 44-553) |
| 2 peptides | ATP-BINDING CASSETTE, SUB-FAMILY A (ABC1), MEMBER 13 (from UniProt Q86UQ4 1-5058) |
| 4 peptides | C5orf25 (FLJ44216 PROTEIN) (from UniProt Q8NDZ2 1-872) |
| 9 peptides | CARS2 (HYPOTHETICAL PROTEIN FLJ12118) (from UniProt Q9HA77 1-564) |
| 3 peptides | CASEIN KINASE 2, ALPHA PRIME PO… (from UniProt P19784 1-350) |
| 8 peptides | CHAPERONIN CONTAINING TCP1, SUBUNIT 4 (DELTA) (from UniProt P50991 2-539) |
| 11 peptides | CHAPERONIN CONTAINING TCP1, SUBUNIT 7 (ETA) (from UniProt Q99832 1-543) |
| 7 peptides | CHD9 (HYPOTHETICAL PROTEIN BC022889) (from UniProt Q3L8U1 1-2897) |
| 4 peptides | CITRON (RHO-…, SERINE/THREONINE KINASE 21) (from UniProt O14578 1-2027) |
| 6 peptides | CNDP … 2 (METALLO… M20 FAMILY) (from UniProt Q96KP4 2-475) |
| 7 peptides | COILED-COIL DOMAIN CONTAINING 50 (from UniProt Q8IVM0 2-306) |
| 2 peptides | CORONIN, ACTIN BINDING PROTEIN, 1A (from UniProt P31146 2-461) |
| 5 peptides | CORTACTIN (from UniProt Q14247 1-550) |
| 5 peptides | CULLIN 5 (from UniProt Q93034 1-780) |

| #Peptides | Substance |
| --- | --- |
| 2 peptides | CYCLIN B2 (from UniProt O95067 1-398) |
| 2 peptides | CYCLIN G1 (from UniProt P51959 1-295) |
| 1 peptides | CYCLIN K (from UniProt O75909 1-580) |
| 3 peptides | DEAH (ASP-GLU-ALA-HIS) BOX PO… 38 (from UniProt Q92620 2-1227) |
| 25 peptides | DEHYDROGENASE E1 AND TRANSKETOLASE DOMAIN CONTAINING 1 (from UniProt Q96HY7 1-919) |
| 3 peptides | ENGULFMENT AND CELL MOTILITY 1 (from UniProt Q92556 1-727) |
| 4 peptides | EUKARYOTIC ELONGATION FACTOR-2 KINASE (from UniProt O00418 2-725) |
| 9 peptides | EXOSOME COMPONTENT 10 (from UniProt Q01780 1-885) |
| 4 peptides | FERM AND PDZ DOMAIN CONTAINING 1 (from UniProt Q5SYB0 1-1578) |
| 5 peptides | FOUR AND A HALF LIM DOMAINS 1 (from UniProt Q13642 2-323) |
| 12 peptides | GEPHYRIN (from UniProt Q9NQX3 1-736) |
| 3 peptides | GLUCO… AER61 (from UniProt Q5NDL2 18-527) |
| 2 peptides | GLUTAMATE RECEPTOR, IONOTROPIC, N-METHYL D-… 2D (from UniProt O15399 28-1336) |
| 15 peptides | HEAT SHOCK 70 kDa PROTEIN 1A (from UniProt P0DMV8 2-641) |
| 15 peptides | HEAT SHOCK 70 kDa PROTEIN 1B (from UniProt P0DMV9 2-641) |
| 9 peptides | HETEROGENEOUS NUCLEAR RIBONUCLEOPROTEIN H1 (from UniProt P31943 1-449) |
| 1 peptides | HOMER HOMOLOG 3 (DROSOPHILA) (from UniProt Q9NSC5 1-361) |
| 8 peptides | HTRA SERINE … 2 (from UniProt O43464 134-458) |
| 4 peptides | HYPOTHETICAL PROTEIN FLJ22184 |
| 5 peptides | ISOCITRATE DEHYDROGENASE 3 (NAD+) ALPHA (from UniProt P50213 28-366) |
| 28 peptides | KERATIN 16 (FOCAL NON-EPIDERMOLYTIC PALMOPLANTAR KERATODERMA) (from UniProt P08779 1-473) |
| 3 peptides | KERATIN 19 (from UniProt P08727 1-400) |

| #Peptides | Substance |
| --- | --- |
| 3 peptides | KIAA0895 PROTEIN (from UniProt Q8NCT3 1-520) |
| 7 peptides | KINESIN FAMILY MEMBER 14 (from UniProt Q15058 1-1648) |
| 16 peptides | LECTIN, MANNOSE-BINDING, 1 (from UniProt P49257 31-510) |
| 15 peptides | LOC731751 (UNKNOWN PROTEIN) |
| 3 peptides | LUC7L2 (CGI-59 PROTEIN) (from UniProt Q9Y383 1-392) |
| 20 peptides | MALIC ENZYME 2, NAD(+)-…, MITOCHONDRIAL (from UniProt P23368 19-584) |
| 2 peptides | MITOGEN-… PROTEIN KINASE KINASE KINASE 7 … PROTEIN 2 (from UniProt Q9NYJ8 1-693) |
| 3 peptides | MYELOPEROXIDASE (from UniProt P05164 165-745) |
| 4 peptides | N-ACETYLGLUCOSAMINE KINASE (from UniProt Q9UJ70 2-344) |
| 32 peptides | NON-POU DOMAIN CONTAINING, OCTAMER-BINDING (from UniProt Q15233 1-471) |
| 10 peptides | NUDIX (NUCLEOSIDE DIPHOSPHATE LINKED MOIETY X)-TYPE MOTIF 19 (from UniProt A8MXV4 1-375) |
| 2 peptides | PATCHED DOMAIN CONTAINING 2 (from UniProt Q9P2K9 1-1392) |
| 2 peptides | PDZ AND LIM DOMAIN 7 (ENIGMA) (from UniProt Q9NR12 1-457) |
| 4 peptides | PEROXIREDOXIN 3 (from UniProt P30048 62-256) |
| 11 peptides | POLYMERASE (DNA-DIRECTED), DELTA … PROTEIN 2 (from UniProt Q9Y2S7 52-368) |
| 6 peptides | PRE-B-CELL COLONY … FACTOR 1 (from UniProt P43490 1-491) |
| 6 peptides | PRE-MRNA CLEAVAGE FACTOR I, 59 kDa SUBUNIT (from UniProt Q8N684 1-471) |
| 9 peptides | PROTEIN KINASE, AMP-…, BETA 1 NON-… SUBUNIT (from UniProt Q9Y478 2-270) |
| 12 peptides | PROTEIN KINASE, AMP-…, GAMMA 1 NON-… SUBUNIT (from UniProt P54619 1-331) |
| 6 peptides | PROTEIN PHOSPHATASE 1, REGULATORY (INHIBITOR) SUBUNIT 9A (from UniProt Q9ULJ8 1-1098) |
| 2 peptides | PROTEIN PHOSPHATASE 1, … SUBUNIT, ALPHA ISOFORM (from UniProt P62136 2-330) |
| 13 peptides | PYRUVATE KINASE, MUSCLE (from UniProt P14618 2-531) |

| #Peptides | Substance |
| --- | --- |
| 7 peptides | RAB … LYSOSOMAL PROTEIN-LIKE 1 (from UniProt Q5EBL4 1-403) |
| 2 peptides | RAN BINDING PROTEIN 10 (from UniProt Q6VN20 2-620) |
| 2 peptides | RAVER1 (from UniProt Q8IY67 2-606) |
| 6 peptides | RB1-INDUCIBLE COILED-COIL 1 (from UniProt Q8TDY2 1-1594) |
| 7 peptides | REGULATION OF NUCLEAR pre-mRNA DOMAIN CONTAINING 1A (from UniProt Q96P16 2-312) |
| 3 peptides | SEC13-LIKE 1 (S. …) (from UniProt P55735 2-322) |
| 3 peptides | SEC23 HOMOLOG A (S. …) (from UniProt Q15436 2-765) |
| 3 peptides | SEMENOGELIN I (from UniProt P04279 24-462) |
| 6 peptides | SERPINE1 MRNA BINDING PROTEIN 1 (from UniProt Q8NC51 2-408) |
| 5 peptides | SIN3A-ASSOCIATED PROTEIN, 130 kDa (from UniProt Q9H0E3 1-1048) |
| 11 peptides | SODIUM CHANNEL, VOLTAGE-GATED, TYPE X, ALPHA (from UniProt Q9Y5Y9 1-1956) |
| 4 peptides | SPLICING FACTOR 1 (from UniProt Q15637 2-639) |
| 2 peptides | SRY (SEX … REGION Y)-BOX 6 (from UniProt P35712 1-828) |
| 2 peptides | STATHMIN-LIKE 3 (from UniProt Q9NZ72 1-180) |
| 4 peptides | TRANSLOCASE OF INNER MITOCHONDRIAL MEMBRANE 50 HOMOLOG (from UniProt Q3ZCQ8 45-353) |
| 5 peptides | TRYPTOPHANYL TRNA … 2 (from UniProt Q9UGM6 19-360) |
| 36 peptides | TUBULIN, BETA 2C (from UniProt P68371 1-445) |
| 14 peptides | TUBULIN, BETA 4 (from UniProt P04350 1-444) |
| 1 peptides | U2(RNU2) SMALL NUCLEAR RNA AUXILIARY FACTOR 1 (from UniProt Q01081 2-240) |
| 8 peptides | UBR4 (ZINC FINGER, UBR1 TYPE 1) (from UniProt Q5T4S7 1-5183) |

| Substance | #Peptides |
| --- | --- |
| ALDO-KETO REDUCTASE FAMILY 7, MEMBER A2 (AFLATOXIN ALDEHYDE REDUCTASE) (from UniProt O43488 39-359) | 19 peptides |
| HEAT SHOCK 70 kDa PROTEIN 9B (MORTALIN-2) (from UniProt P38646 47-679) | 11 peptides |
